US20150322119A1

How the values were obtained:
[1] = biological target: murine FcγRI extracellular domain with C-terminal 6×His-tag (mouse) (UniProt P26151); test: SPR, equilibrium KD
[2] = biological target: murine FcγRIIB, soluble form (mouse) (UniProt P08101); test: SPR, equilibrium KD
[3] = biological target: murine FcγRIII, soluble form (mouse) (UniProt P08508); test: SPR, equilibrium KD
[4] = biological target: murine FcγRIV, soluble form (mouse); test: SPR, equilibrium KD
mouse FcRn (mouse) = mouse FcRn (mouse) (UniProt Q61559); test: SPR, FcRn coated on CM5 chip, antibody flowed at pH 6.0
UniProt Q61559, sequence (Q61559 22-297 limits assumed): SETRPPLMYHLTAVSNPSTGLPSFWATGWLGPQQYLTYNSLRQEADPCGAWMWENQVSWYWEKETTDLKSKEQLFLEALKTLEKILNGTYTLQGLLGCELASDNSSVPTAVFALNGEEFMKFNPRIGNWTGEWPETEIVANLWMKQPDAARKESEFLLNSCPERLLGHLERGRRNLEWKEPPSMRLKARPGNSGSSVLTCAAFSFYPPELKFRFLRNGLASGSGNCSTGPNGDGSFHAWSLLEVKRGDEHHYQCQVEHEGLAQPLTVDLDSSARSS

mouse anti-mouse CTLA-4 antibody 9D9, mouse IgG2a isotype, sequence (P01863 whole entry): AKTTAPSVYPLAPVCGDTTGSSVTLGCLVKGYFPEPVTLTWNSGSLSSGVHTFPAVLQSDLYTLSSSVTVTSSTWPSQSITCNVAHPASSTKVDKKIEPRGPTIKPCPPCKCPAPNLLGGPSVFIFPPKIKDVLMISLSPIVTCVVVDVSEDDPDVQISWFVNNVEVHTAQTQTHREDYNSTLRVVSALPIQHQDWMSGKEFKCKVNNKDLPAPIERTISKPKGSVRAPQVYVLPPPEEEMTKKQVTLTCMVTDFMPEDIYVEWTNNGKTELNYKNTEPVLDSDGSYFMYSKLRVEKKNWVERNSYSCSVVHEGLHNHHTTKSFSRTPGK
UniProt P08508, sequence (P08508 31-215 limits assumed): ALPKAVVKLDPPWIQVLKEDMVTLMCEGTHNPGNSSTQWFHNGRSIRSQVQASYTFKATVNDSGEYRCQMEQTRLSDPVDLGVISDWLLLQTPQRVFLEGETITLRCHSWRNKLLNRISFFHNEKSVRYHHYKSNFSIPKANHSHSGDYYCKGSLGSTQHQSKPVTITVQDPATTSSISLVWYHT
UniProt P08101, sequence (P08101 30-207 limits assumed): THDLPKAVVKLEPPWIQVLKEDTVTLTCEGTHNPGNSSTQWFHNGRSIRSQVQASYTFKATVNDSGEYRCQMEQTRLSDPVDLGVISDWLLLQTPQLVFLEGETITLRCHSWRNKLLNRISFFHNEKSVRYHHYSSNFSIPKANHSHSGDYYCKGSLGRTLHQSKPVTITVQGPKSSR
UniProt P26151, sequence (P26151 other isoform, or with tags, fused parts or gaps): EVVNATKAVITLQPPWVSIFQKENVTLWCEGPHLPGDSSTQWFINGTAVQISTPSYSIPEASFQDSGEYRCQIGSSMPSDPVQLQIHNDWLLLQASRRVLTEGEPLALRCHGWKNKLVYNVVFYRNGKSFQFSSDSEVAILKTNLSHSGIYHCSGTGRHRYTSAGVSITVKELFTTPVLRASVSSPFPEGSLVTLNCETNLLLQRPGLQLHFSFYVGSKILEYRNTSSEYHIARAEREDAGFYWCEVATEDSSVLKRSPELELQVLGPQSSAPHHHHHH

| Substance | Kd [1] [nM] | Kd [2] [nM] | Kd [3] [nM] | Kd [4] [nM] | Kd (mouse FcRn (mouse)) [nM] |
| --- | --- | --- | --- | --- | --- |
| mouse anti-mouse CTLA-4 antibody 9D9, mouse IgG2a isotype | 32.7 | 1410 | 1500 | 29.4 | 13.5 |
| mouse anti-mouse CTLA-4 antibody 9D9, mouse IgG1 isotype containing a D265A mutation (from UniProt P01868 1-324) | – | – | – | – | 24.6 |
| mouse anti-mouse CTLA-4 antibody 9D9, mouse IgG2b isotype (original isotype, derived from the hybridoma) | – | 748 | 2440 | 56.3 | 19.7 |
| mouse anti-mouse CTLA-4 antibody 9D9, mouse IgG1 isotype | – | 479 | 1880 | – | 22.4 |
